# B1: La-1-like peptide (peptide)
# chain: SGESCKAGKFTVLVGHQQNDKSTCTLYKCLNFKRKYALQISSCADVDLKSGCRQVPGAASANFPECCPMVICK
# modifications: S Maurus palmatus
# Key:
# Assay type in all cases: cell-based
# [1] = test system: testicular sperm from macaca; experiment: Motility activation in testicular sperm from Macaca (CASA); conditions: non-human primate testicular sperm, FIGS. 3 and 4
# Experimental: FIG. 3: Measurement of motile cells and progressive cells after incubation of testicular sperm from macaca (non-human primate) with (7.8 Kda peptide) and without (Control) peptide SEQ ID NO. 1. Motile sperm and progressive sperm were characterized by VAP>1 μm/s and VAP>30 μm/s and STR>70%, respectively. STR=VSL/VAP. Statistical analyses were performed with SigmaPlot. t tests were used to compare the effects of La1-like peptide on sperm motility parameters. Data represent mean±SEM. Statistical tests with a 2-tailed P values 0.05 were considered significant. […]
# After 10 minutes incubation with the peptide according to SEQ ID NO. 1 (natural, or synthesized), the sperm suspension was immediately placed onto an analysis chamber (Leja Products B.V., Netherlands) of 100 μm depth for mouse sperm and 20 μm depth for human, NHP and bovine sperm, and kept at 37° C. for microscopic quantitative study of sperm movement. Sperm motility parameters were measured at 37° C. using a sperm analyzer (Hamilton Thorn Research, Beverley). […] The motility parameters measured were curvilinear velocity (VCL) and amplitude of lateral head displacement (ALH). A minimum of 100 motile spermatozoa was analyzed for each assay. […]
# Macaca testes were collected after euthanasia. […] 1, sperm motility was measured using the same conditions as those in Example 2.
# sperm [2] = experiment: Sperm motility tests by the applicants (comparison with papaverine, duration of effect, synthetic versus venom peptide)
# human sperm = experiment: Velocity test on human spermatozoa treated with the peptide (computer-assisted motility analysis, CASA)
# Text: (§1) Human sperm were obtained from patient consulting at the fertility department of Grenoble, following approval by the ethical committee and informed consent from the patients. All patients gave an informed consent for the conservation of the remnant sperm in the Germetheque biobank and their use in studies on human fertility in accordance with the Helsinki Declaration of 1975 on human experimentation. The Germetheque Scientific Committee approved the present study design. Ejaculate was liquefied at 37° C. for 30 min and sperm were washed twice in Sperm Preparation Medium (Origio, Målov, Denmark) at 500 g for 5 min. Concentration is then adjusted for CASA analysis. Sperm were also frozen with SpermFreeze (Fertipro NV, Beernem, Belgium) for further analysis as frozen sperm.
# (§2) After 10 minutes incubation with the peptide according to SEQ ID NO. 1 (natural, or synthesized), the sperm suspension was immediately placed onto an analysis chamber (Leja Products B.V., Netherlands) of 100 μm depth for mouse sperm and 20 μm depth for human, NHP and bovine sperm, and kept at 37° C. for microscopic quantitative study of sperm movement. Sperm motility parameters were measured at 37° C. using a sperm analyzer (Hamilton Thorn Research, Beverley). The settings employed for analysis were as follows for human, NHP, bovine and mouse respectively: acquisition rate (60;60;60;60) Hz; number of frames: (30;20;30;45); minimum contrast: (80;80;80;50); minimum cell size: (3;4;5;5); low static-size gate: (0,85;0,79;0,1;0,3); high static-size gate: (4,24;2,52;3,4;1,95); low static-intensity gate: (0,39;0,62;0,3;0,5); high static-intensity gate: (1,4;1,4;1,7;1,3); minimum elongation gate: (0;2;8;0); maximum elongation gate: (85;50;97;87); magnification factor: (1,89;1,89;1,89;0,7). The motility parameters measured were curvilinear velocity (VCL) and amplitude of lateral head displacement (ALH). A minimum of 100 motile spermatozoa was analyzed for each assay. Motile sperm were defined by VAP>(1;1;1;1) and progressive sperm were defined by VAP>(25;25;50;30) and STR>(80;80;70;70).
# [3] = test system: mouse oocytes and capacitated sperm; experiment: Fertilization study in mice (in vitro fertilization, 2-cell embryos scored)
# Experimental: Eggs were collected from mature OF1 females, synchronized with 5 units of pregnant mare serum gonadotrophin (PMSG) and 5 units of human chorionic gonadotrophin (hCG). Sperm were capacitated for 55 minutes in M16 2% BSA (37° C., 5% CO2) and introduced into droplets containing oocytes. The active peptide was introduced into droplets at the same time. Oocytes were incubated with 1.5×10^5 to 5×10^5 capacitated sperm/ml (37° C., 5% CO2) in M16 medium and unbound sperm were washed away after 4 hours incubation. Twenty-four hours after fertilization, the different stages, i.e. unfertilized oocytes (including aborted embryos and corresponding to fragmented oocytes or oocytes blocked after the extrusion of the second polar body) and 2-cell embryos (as an indication of successful fertilization) were scored.
# sperm [4] = experiment: Toxicity on sperm (sperm vitality)
# Experimental: Forty μL of sperm were mixed with 20 μL of eosin 1% diluted in NaCl 9/1000 and 20 μL of nigrosine 10% diluted in NaCl 9/1000. Sperm were then layered onto glass slide and dried. A minimum of 100 spermatozoa was analyzed for each assay.
# human ejaculated sperm = experiment: Motility of fresh and frozen human ejaculated sperm incubated with the peptide (Example 5, FIG. 5)
# Experimental: FIG. 5: Measurement of % motile cells and progressive cells after incubation of fresh (left hand panel) and frozen (right hand panel) human ejaculated sperm with (7.8 kDa peptide) or without (Control) the peptide according to SEQ ID NO. 1. Motile sperm and progressive sperm were characterized by VAP>1 μm/s and VAP>30 μm/s and STR>70%, respectively. STR=VSL/VAP. Statistical analyses were performed with SigmaPlot. t tests were used to compare the effects of La1-like peptide on sperm motility parameters. Data represent mean±SEM. Statistical tests with a 2-tailed P values≤0.05 were considered significant.
# as §1, §2
# [5] = fresh human sperm samples, FIG. 5 left-hand panel
# [6] = frozen human sperm samples, FIG. 5 right-hand panel
molecule,measurement,setting,value
B1,non-progressive velocity of sperm cells,[1],increase
same,progressive velocity of sperm cells,[1],increase
same,duration of effect on sperm motility,sperm [2],long lasting effect
same,comparison with papaverine,sperm [2]; compared to papaverine,superiority
same,biological activity of synthesized peptide versus peptide isolated from venom,sperm [2]; peptide synthesized using Native Chemical Ligation Strategy,retains the biological activity
same,sperm motility after incubation,"human sperm; human sperm, incubation with peptide, FIG. 2B",increase in sperm motility
same,increase in lateral amplitude (ALH),human sperm; initial lateral amplitude of less than 3.5 μm versus higher initial ALH values,greater increases
same,increase in motility (VAP),human sperm; sperm having an initial VAP of 60 μm/s,about 20%
same,increase in path velocity (VAP),human sperm; sperm having low initial path velocity (VAP),up to 80%
same,motility activation with respect to initial track speed (VCL),"human sperm; sperm with low initial track speed compared to higher initial track speeds, FIG. 2B upper left panel",higher motility activation
same,toxicity,[3],not toxic
same,increase of rate of fertilization compared to the control,[3]; number of embryos at the two cell stage,approximately 20%
same,embryo development,[3]; two cell stage,does not prevent embryo development
same,toxicity on sperm,sperm [4],no toxicity
same,non-progressive motility,human ejaculated sperm; [5],increases
same,progressive motility,human ejaculated sperm; [5],increases
same,non-progressive motility,human ejaculated sperm; [6],increases
same,progressive motility,human ejaculated sperm; [6],increases
same,"effect on motility, frozen samples versus fresh samples",human ejaculated sperm; human sperm,greater for the frozen samples

# Source: patent publication US10729745B2, “Use of La1-like peptide isolated from maurus palmatus venom as an activator of sperm motility in mammals” (IMV Technologies, priority 2016, dated 2020)
